US20240115527A1, “CXCR1/CXCR2 INHIBITORS FOR USE IN TREATING MYELOFIBROSIS” (Icahn School of Medicine at Mount Sinai, priority 2020, published 2024)

B1: LCN2: Lipocalin2 (LCN2) is a cytokine produced by MF marrow myeloid cells (protein, UniProt P80188 21-198, looked up)
Neutrophil …: QDSTSDLIPAPPLSKVPLQQNFQDNQFQGKWYVVGLAGNAILREDKDPQKMYATIYELKEDKSYNVTSVLFRKKKCDYWIRTFVPGCQPGEFTLGNIKSYPGLTSYLVRVVSTNYNQHAMVFFKKVSQNREYFKITLYGRTKELTSELKENFIRFSKSLGLPENHIVFPVPIDQCIDG

Tests used:
Type in all cases: cell-based, human
[1] = test system: MF CD34+ cells; experiment: Colony forming assay (CFU-GM) of cultured MF CD34+ cells with IL-8; conditions: co-treatment with reparixin, FIG. 5A
Excerpt: FIGS. 5A, 5B. 5C, 5D, and 5E illustrate that a CXCR1/CXCR2 inhibitor reverses effects of IL-8 on MF CD34^+ cell colony formation. […] CFU-GM=colony-forming unit-granulocyte-macrophage. FIGS. 5B and 5C illustrate that IL-8 increased CFU-GM colony formation by MF CD34^+ cells in a dose dependent fashion and that the effects of IL-8 were inhibited by treatment with Ladx. FIG. 5B. Normal cells. FIG. 5C. MF cells. […] Con=control. IL-8 concentrations increase from left to right. […] P values were as follows: w/o Ladx: Con vs IL-8—10 ng: 0.159332; Con vs IL-8—20 ng: 0.011976; Con vs IL-8—50 ng: 0.00262; Con vs IL-8—100 ng: 0.00042; w/ 10 μM Ladx: Con vs Ladx: 0.315782; IL-8—10 ng vs plus Ladx: 0.295851; IL-8—20 ng vs plus Ladx: 0.077726; IL-8—50 ng vs plus Ladx: 0.031355; IL-8—100 ng vs plus Ladx: 0.081595.

[2] = test system: MF CD34+ cells co-cultured with splenic EC; experiment: Proliferation of MF CD34+ cells co-cultured with LCN2 treated splenic endothelial cells; conditions: FIG. 4B
Excerpt: FIGS. 4A and 4B illustrate that addition of a CXCR1/CXCR2 inhibitor reverses effects of IL-8 on MF CD34^+ cells proliferation and lineage differentiation. FIG. 4A illustrates that IL-8 decreased the fraction of normal CD34^+, CD41^+, and CD33^+ cells, but increased the fraction of MF CD34^+, CD41^+, and CD33^+ cells. The effects of IL-8 were eliminated by the addition of the CXCR1/CXCR2 inhibitor ladarixin (Ladx). Normal CD34/CD41/CD33: left bars. MF CD34/CD41/CD33: Right bars. FIG. 4B illustrates that splenic endothelial cells (ECs) promote the proliferation of hematopoietic CD34^+ cells. Shown is fold change in CD34^+ cells cultured alone in the absence of cytokines and that the numbers are increased when the CD34^+ cells were co-cultured with LCN2 treated endothelial cells. The effects of co-cultivation with ECs were eliminated by addition of the CXCR1/CXCR2 antagonist reparixin (RPX).
Similarly, while treatment with LCN2 enhances endothelial cell (EC)-mediated proliferation of MF cells, treatment with the CXCR1/CXCR2 inhibitor reparixin decreased MF CD34^+ proliferation when co-cultured with splenic EC (FIG. 4B).

[3] = test system: normal splenic stromal cells; experiment: IL-8 and CXCL1 mRNA and protein levels in normal splenic stromal cells treated with LCN2; conditions: treatment with LCN2, FIGS. 3A and 3B
Excerpt: FIGS. 3A, 3B, and 3C illustrate that reduction of IL-8 blocks VEGF, which is involved in the development of splenic endothelial cells (EC)/MF HSC niches. FIGS. 3A and 3B illustrate that LCN2 increases IL-8 and CXCL1 protein and mRNA levels in spleen stromal cells. Con: left bars. LCN2: right bars. FIG. 3C illustrates that IL-8 regulates VEGF expression. si=silencing. Ab=antibody. Con=control.
Lipocalin2 (LCN2) is a cytokine produced by MF marrow myeloid cells. Levels of LCN2 are 2-3 fold greater in the circulation of MF patients as compared to PV and ET patients and even higher as compared to healthy controls. […] IL-8 and the related chemokine CXCL1 are pro-angiogenic creating a cascade of cytokines (VEGF) contributing to the development of splenic EC/MF HSC niches. […] The positive impact of IL-8 on VEGF expression was blocked by an IL-8 neutralizing antibody.

Row | Molecule | effect on IL-8 enhanced colony output of MF CD34+ cells [1] | MF CD34+ proliferation when co-cultured with splenic EC ([2]; reparixin added to co-culture) | CXCL1 mRNA and protein levels [3] | IL-8 mRNA and protein levels [3] | endothelial cell (EC)-mediated proliferation of MF cells ([2]; LCN2 treated endothelial cells)
1 | CC(C)Cc1ccc([C@@H](C)C(=O)NS(C)(=O)=O)cc1 [reparixin, R-(-)-2-(4-isobutylphenyl)-N-methanesulfonyl propionamide] | ameliorated | decreased | – | – | –
2 | B1 | – | – | significant increase | significant increase | enhances
